Legend:
[1] = target: Pro-MMP-9 (recombinant) (Mus musculus (Mouse)) (UniProt P41245); test: cell-based or functional assay
[2] = target: Pro-MMP-9 (recombinant) (Mus musculus (Mouse)) (UniProt P41245); test: CLU-His pull-down with anti-His tag antibody beads, gelatin zymography, densitometry; reference: MMP-9 and MMP-9-ΔC

mouse CLU with C-terminal (His)6 (CLU-His), recombinant secreted clusterin, sequence (Q06890 other isoform, or with tags, fused parts or gaps): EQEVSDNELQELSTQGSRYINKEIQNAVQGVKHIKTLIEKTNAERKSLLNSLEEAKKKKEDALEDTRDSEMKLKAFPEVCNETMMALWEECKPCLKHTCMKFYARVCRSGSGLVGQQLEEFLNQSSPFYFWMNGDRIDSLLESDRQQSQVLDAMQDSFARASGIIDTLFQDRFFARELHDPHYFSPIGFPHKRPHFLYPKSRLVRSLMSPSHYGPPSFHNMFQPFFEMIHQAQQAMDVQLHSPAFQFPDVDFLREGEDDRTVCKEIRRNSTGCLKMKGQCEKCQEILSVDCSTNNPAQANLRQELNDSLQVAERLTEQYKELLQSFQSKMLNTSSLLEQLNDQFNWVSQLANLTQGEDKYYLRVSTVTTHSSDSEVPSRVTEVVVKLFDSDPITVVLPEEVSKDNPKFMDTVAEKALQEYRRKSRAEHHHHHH

inhibition of MMP-9 activity; FRET peptide substrate, average of three independent experiments, CLU 50 µg/ml [1]: 35%
inhibition of MMP-9 activity; FRET peptide substrate, pro-MMP-9 with APMA, 3 h, CLU 50 µg/ml (0.63 µM) [1]: 28%
fold stronger affinity for CLU than the other forms of MMP-9 (band densities, Image J) [2]: > 10 times
Substance: mouse CLU with C-terminal (His)6 (CLU-His), recombinant secreted clusterin (from UniProt Q06890 22-448)

— patent US10398755
